This is an account of results in publication PMC8692152, “Cellular Id1 inhibits hepatitis B virus transcription by interacting with the novel covalently closed circular DNA-binding protein E2F4” (International Journal of Biological Sciences, 2022).

This data set deals with the molecule itself. As to the kind of experiment: SEC; Superdex 75, 50 mM Tris-HCl pH 8.0, 300 mM NaCl; calibrated with molecular mass standards.

Broadly, the stoichiometry N is the number of molecules, sites or subunits per partner or assembly.

B1: E2F4_(1-88) (domain or fragment)
chain: not shown
notes: The section on ITC sample preparation describes an E2F4_(1-88) protein purified on a GST column and cut with 3C protease; also called pET28-E2F4_(1-88)
Take B1: the “stoichiometry N” value is 2.
